The record followed here is the supplement of paper PMC9170038.

Data set [1] deals with MS2 coat protein. Briefly: apparent KD of MS2 coat protein, switch OFF state (with FMN for OFF switches, without FMN for ON switches); designed switch direction (-1 OFF switch, 1 ON switch): 1; higher = weaker reporter binding. To be noted: FMN input: 0 or 200 uM; Eterna round: R93 (includes R88 designs). In short, it runs like this: (§1)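 Designed RNA switches, transcribed on-chip from Illumina sequencing clusters, were titrated with SNAP-549-labelled MS2 coat protein from 0.7 or 1.5 nM to 3 µM in twofold steps. The solution was 100 mM Tris-HCl pH 7.5, 80 mM KCl, 4 mM MgCl2, with constant ligand or without it. Apparent KD is the median over each design's normalised cluster binding-curve fits.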

The subject of data set [2] is MS2 coat protein. The experiment in a line: apparent KD of MS2 coat protein, switch ON state; designed switch direction (-1 OFF switch, 1 ON switch): 1; higher = weaker reporter binding. Conditions: FMN input: 0 or 200 uM; Eterna round: R93 (includes R88 designs). The gist of the method: as §1

As for “GAAAAACAUGAGGAUCACCCAUGUAAGAUAAACACAGGAUAUGCGAAAAUAAAUAAAUAAGCAGAAGGGUGAAGAA [Mat - Same State 1 - Tesla mod - 74]”, the “apparent KD of MS2 coat protein” value in the data set on MS2 coat protein [1] is 35.2 nM; in the data set with MS2 coat protein [2], 11.5 nM.
Taken in the same sequence, the figures for “GGGAAUAAAAGAGAGGAUAUCCAAAGGAAAACAUGAGGAUCACCCAUGUAAAAGGAAGGAAAUUGGGAGAAGGCUCAAGAUAGGG [salish99-ss2-012]” were 26.1 nM and 29.4 nM.
On the same counts, the results for “AAGAAACAUGAGGAUCACCCAUGUAAGAUAAACACAGGAUAUGCGAAAAGAAACAAAGAAGCAGAAGGGUGAAGAA [Ex5 sub 1]” are 35.7 nM and 17 nM.
Taken in the same sequence, the figures for “AAAAAACAUGAGGAUCACCCAUGUGACAACAUGGGAGGAUAUACGAAGACGAGAGUCGAAGUAGAAGGCCUAAAAA [Garnet 76]” were 65.2 nM and 98.5 nM.
For the sequence “GAGGACCUAGGAUAGGAUAUGUGAAAAAUUACAUGAGGAUCACCCAUGUCCAUUUAUAUGGGAACAUAGAAGGGUUCUGGUUAUC [Mat - Same state - Malcolm Mod - D150]”, the “apparent KD of MS2 coat protein” value is 61.6 nM with MS2 coat protein [1] and 35.7 nM in the data set with MS2 coat protein [2].
On the same counts, the results for “AGAAAUAAAAGACAGGAUAUCCAAAAGAAAACAUGAGGAUCACCCAUGUAAAAGAAAAUAAAAUGGGAGAAGGGUCAAAAUAAAG [Topaz 2]” are 36.6 nM and 11 nM.
Regarding “CUGGACCUAGGAUAGGAUAUGUGAAUAAUUACAUGAGGAUCACCCAUGUCCAUUUAUAUGGGAACAUAGAAGGGUUCUGGUUAAG [Mat - Same state - Malcolm Mod - D146]”, the “apparent KD of MS2 coat protein” value in the data set with MS2 coat protein [1] is 66.1 nM; with MS2 coat protein [2], 42.2 nM.
Regarding “AAAAGACAUGAGGAUCACCCAUGUCGAAAGACAUGAGGAUAUGUACAGACUUCGGUCUGUACAGAAGGCAUGUAAA [SS1 - 1068]”, the entries for the “apparent KD of MS2 coat protein” value in the data set on MS2 coat protein [1] and in the data set with MS2 coat protein [2] were 50.3 nM and 16.7 nM, respectively.
Taken in the same sequence, the figures for “AAACCACAUGAGGAUCACCCAUGUAAGAUAUACAUAGGAUAUGCGAAAAGAAACAAAGAAGCAGAAGGGUGAAAAA [75%, Ex sub1, 14]” were 72.8 nM and 172 nM.
Taken in the same sequence, the figures for “AUAAGACAUGAGGAUCACCCAUGUAUUAGAGCAUGAGGAUAUAUGAAUAGUAAUAGGAGGAUAGAAGGCAUGGUUG [JR_SS001_Sub1218]” were 138 nM and 92.6 nM.
On the same counts, the results for “AAAAAAAAAAGACAGGAUAUCCAAAAGAAAACAUGAGGAUCACCCAUGUAAAAGAAAAUAAAAUGGGAGAAGGGUCAAAAUAAAG [Mat - Same State 2 - JL mod - D74]” are 58.2 nM and 9.39 nM.
“AGGAAACAUGAGGAUCACCCAUGUAAAAAUAUGGGAGGAUAUACAAAGACGAAAGUAAGAGUAGAAGGCCUAAAAG [Garnet 16]”: the “apparent KD of MS2 coat protein” value amounted to 150 nM in the data set with MS2 coat protein [1] and 31.3 nM in the data set with MS2 coat protein [2].
On the same counts, the results for “CGGAGACAUGAGGAUCACCCAUGUGAGAAGAGGCGAGGAUAUCGAAAGAAAGAAGAGAAACGAGAAGGCGCGAGCA [salish99-SS1-068]” are 24.4 nM and 22.9 nM.
Taken in the same sequence, the figures for “AUUAGACAUGAGGAUCACCCAUGUAGGCAGUCAUGAGGAUAUGGACAAGGUGCUCAAGGUCCAGAAGGCAUACGCC [Maxeus]” were 57.6 nM and 14.8 nM.
Taken in the same sequence, the figures for “AAAAAAUAAAAAAAGGAUAUCUGCAGUACGACAUGAGGAUCACCCAUGUGGUACUGCAGAUAUCAAAAGAAGGAAAAAUAAAAAA [SS2: MS2 52]” were 18.1 nM and 13.6 nM.
Turning to “AUAUAUAUAAGGUAGGAUAUCCAAUAAUCCACAUGAGGAUCACCCAUGUAAAGAAAGAAAAAGUGGGAGAAGGACCAUAUAUAUA [77%, More Tesla, 7]”, the “apparent KD of MS2 coat protein” value came to 34 nM in the data set on MS2 coat protein [1] and 17.6 nM in the data set with MS2 coat protein [2].
For “GAAAAACAUGAGGAUCACCCAUGUAGAAAUAUGGGAGGAUAUACUAAGACGAAAGUCGAAGUAGAAGGCCUAAAAG [Same State 1.4f (Mat - Mod of Eli - )]”, the “apparent KD of MS2 coat protein” value was 54.2 nM in the data set with MS2 coat protein [1] and 21.7 nM with MS2 coat protein [2].
On the same counts, the results for “AAGAAAGUUUACGAGGAUAUGUUCCGCAGAACAUGAGGAUCACCCAUGUGAACACGAAGUGCGACGCAGAAGGCGUGAGCAAUGA [Isenmaqu]” are 130 nM and 34.5 nM.
Taken in the same sequence, the figures for “AUAUAUAAAAGGUAGGAUAUUCUAAAAUAAACAUGAGGAUCACCCAUGUAAAAAAAGAAACUCAUGGAGAAGGACCAUAUAUAUA [ss2 6th modifying Eli's mod of Tesla]” were 44.5 nM and 31.5 nM.
